From paper PMC7683400 come the findings set out here.

Experiment [1] deals with fully glycosylated CmeA (g2CmeA), soluble periplasmic His6-tagged CmeA (Campylobacter jejuni) (UniProt Q0PBE3). Description: SPR; g0CmeA (1,040 RU) or g2CmeA (900 RU) immobilised on a CM5 chip by amine coupling; CmeC flowed over in 2-fold dilutions from 2 × 10^-7 M; HBS-PE (10 mM HEPES pH 7.4, 3 mM EDTA, 0.005% P20), 25°C, 30 µl/min; constants are of the slow interactions only, the fast interactions could not be fitted. (In general: SPR reads the build-up and loss of mass on a sensor chip optically.)

The target of experiment [2] is nonglycosylated CmeA (g0CmeA), soluble periplasmic His6-tagged CmeA (Campylobacter jejuni) (UniProt Q0PBE3). Described as above.
Experiment [3] concerns the target CmeC (outer membrane channel of the CmeABC efflux pump) (UniProt Q0PBE5). Description: SPR (Biacore, CM5 chip). Conditions: pH 7.4; 25°C; not stated (no salt is listed in the buffer recipes); pH 7.4: 10 mM HEPES (HBS-PE); pH 6.0: 10 mM MES.

A word on the Kd: it is the equilibrium constant for the complex coming apart. In general, koff refers to a measure of how fast the partners let go of each other. With “CmeC, outer membrane channel of CmeABC, 10×His-tagged, expressed in E. coli (natural protein)”, in experiment [1], the dissociation constant (Kd) is 5 nM, the koff was determined as 0.00075 s⁻¹ and the kon was 150000 M⁻¹ s⁻¹. In experiment [2], this substance returned a Kd of 17 nM, a dissociation rate constant (koff) of 0.00085 s⁻¹ and a kon of 50000 M⁻¹ s⁻¹.
Take “g0CmeA (non-glycosylated CmeA, periplasmic fusion protein of the CmeABC efflux pump)”: in experiment [3], the koff was 8.5 ± 1.0 × 10^–4 s^–1 and the kon is reported as 5.0 ± 0.8 × 10^4 (M^–1 s^–1).
On the same counts, the results for g2CmeA (fully N-glycosylated CmeA) are 7.5 ± 0.6 × 10^–4 s^–1 and 1.5 ± 0.04 × 10^5 (M^–1 s^−1).
